# Experimental data taken from the nanobody polyreactivity screen of Harvey et al. (2022).
# Experiment: yeast display, Sf9 membrane polyspecificity reagent, FACS + sequencing; frameworks hold sequencing errors
# Method in brief: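 Nanobodies from a synthetic yeast display library (Saccharomyces cerevisiae BJ5465), induced 36–48 hours with galactose, were stained 1 hour at 4 °C with 10% biotinylated, detergent-solubilized Sf9 membrane reagent, enriched on streptavidin microbeads, then FACS-sorted. Anti-HA (expression) and streptavidin (reagent binding) fluorescence set low and high (top ~1%) gates. Polyreactivity labels come from the gate of origin. Genes were colony-PCR amplified, MiSeq 2 × 250 sequenced and filtered by CDR length.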
row,Sequence,polyreactivity (PSR sort gate)
1,QVQLVESGGGLVQAGGSLRLSCAASGSISKFYAMGWYRQAPGKERELVAAISSGGITNYADSLKGRFTISRDNAKNTVYLQMNSLKPEDTAVYYCAKDYPYYEGAKYYYWGQGTQVTVSS,high polyreactivity
2,QVQLVESGGGLVQAGGSLRLSCAASGSISKINAMGWYRQAPGKERELVAAINTGDSTYYADSVKGRFTISRDNEKNTVYLQMNSLKPEDTAVYYCAAEGSPTGYDYWGQGTQVTVSS,low polyreactivity
3,QVQLVESGGGLVQAGGSLRLSCAASGSISKYTMGWYRQAPGKERELVAAINWSGGSTYADSVKGRFTISRDNAKNTVYLQMNSLKPEATAVYYCNARAQRGYFGYRYNYWGQGTQVTVSS,high polyreactivity
4,QVQLVESGGGLVQAGGSLRLSCAASGSISLLYAMGWYRQAPGKDRELVAAISSGTDDTYYADSVKGRFTISRDNAKNTVYLQMNSLKPEDTAVYYCAADPLFKDDLWPVRVRVDYWGQGTQVTVSS,low polyreactivity
5,QVQLVESGGGLVQAGGSLRLSCAASGSISQTYAMGWYRQAPGKERELVAAISSSGASTYYADSVKGRFTISRDNAKNTVYLQMNCLKPEDTAVYYCAALGRYRYIYNYWGQGTQVTVSS,high polyreactivity
6,QVQLVESGGGLVQAGGSLRLSCAASGSISRYAMGWSRQAPGKERELVAAITRSGGSTHYADSVKGRFTISRDNAKNTVYLQMNSLKPEDTAVYYCATRYYRGVIRYPYDSWGQGTQVTVSS,high polyreactivity
7,QVQLVESGGGLVQAGGSLRLSCAASGSISSGYFMGWYRQAPGKERELVAAISFSGGSTYYADSVKGRFTISRDNAKNTVYLQMNSLKPEDTAVYYCNALFWYRYFSGVSQDYDYWGQGTQVTVSS,high polyreactivity
8,QVQLVESGGGLVQAGGSLRLSCAASGSISSKNSMGWYRQAPGKEREFVAVISGTGGSTYYSDSVKGRFTISRDIAKNTVYLQMNSLKPEDTAVYYCAADFPWSTKSWHPDSGDSWGQGTQVTVSS,low polyreactivity
9,QVQLVESGGGLVQAGGSLRLSCAASGSISTFYAMGWYRQAPGKEREFVAAISTRDGTTRYADSVKGRFTISRDNAKNTVYLQMNSLKPEDTAVYYCAAKGGGVWLYARIYSDYYWGQGTQVTVSS,low polyreactivity
10,QVQLVESGGGLVQAGGSLRLSCAASGSISTPYTMGWYRQAPGKERELVADISWIGDTTSYADSVKGRFTISRDNAKNTVYLLMNSLKPEDTAVYYCNAEHRGYEYWGQGTQVTVSS,low polyreactivity
11,QVQLVESGGGLVQAGGSLRLSCAASGSISTWYAMGWYRQAPGKERELVAAINSGDSTYYADSVKGRFTISRDNAKNTVYLQMNSLKPEDTAVYYCAASSYSSKPFDYWGQGTQVTVSS,high polyreactivity
12,QVQLVESGGGLVQAGGSLRLSCAASGSISTYYAMGWYRQAPGKERELVAAITRNGGSTYYADSVKGRFTISRDNSKNTVYLQMNSLKPEDTAVYYCAARNAFGTYYYWGQGTQVTVSS,high polyreactivity
13,QVQLVESGGGLVQAGGSLRLSCAASGSISVANAMGWYRQAPGKERELVAAITDSGDDTYYADSVKGRFTISRDNAKNTVYLQMNSLKPEDTAVYYCAVEAWSVPPYDYWGQGTIVTVSS,low polyreactivity
14,QVQLVESGGGLVQAGGSLRLSCAASGSISYFNAMGWYIQAPGKERELVAAISRGATTYADSVKGRFTISRDNAKNTVYLQMNSLKPEDTAVYYCNAGLRGNIRKSYRYDSWGQGTQVTVSS,high polyreactivity
15,QVQLVESGGGLVQAGGSLRLSCAASGSISYFNAMGWYRPAPGKERELVAAITSGGSTYYADSVKGRFTISRDNAKNTVYLQMTSLKPEDTAVYYCNAPLEWGVYAAQNWDDGYWGQGTQVTVSS,low polyreactivity
16,QVQLVESGGGLVQAGGSLRLSCAASGSISYFNAMGWYRQAPGKERELVAAITSGGSTYYADSVKGRFTISLDNAKNTVYLQMNSLKPEDTAVYYCNAPLEWGVYAAQNWDDGYWGQGTQVTVSS,low polyreactivity
17,QVQLVESGGGLVQAGGSLRLSCAASGSISYFNDMGWYRQAPGKERELVAAIRDSGGITYADSVKGRFTISRDNAKNTVYLQMNSLKPEDTAVYYCATYGNEIYDYWGLGTQVTVSS,low polyreactivity
18,QVQLVESGGGLVQAGGSLRLSCAASGSISYFYAMGWYRQAPGKERELVAAINSGDDTYADSVKGRFTISRDNAKNTVYLQMNSLKPEDTAVYYCAVKYGGYESHYYRRPHYDYWGQGTQVTVSS,low polyreactivity
19,QVQLVESGGGLVQAGGSLRLSCAASGSISYIYTMGWDRQAPGKQRELVAAMSGSGSTYYADSVKGRFTISRDNAKNTVYLQMNSLKQEDTAVHYCNAGSGGLNFQEVPHGYDYWGQGTQVTVSS,low polyreactivity
20,QVQLVESGGGLVQAGGSLRLSCAASGSISYKYAMGWYRQAPGKERELVAAISSSGGRTYYADSVKGRFTISRDNAKNTVYLQMNSLKPEDTAVYYCNADVLFYTYYTRGRFDFDYWGQGTQVTVSS,low polyreactivity
21,QVQLVESGGGLVQAGGSLRLSCAASGSISYVNAMGWYRQAPGKERELVAAITGGGSTNYADSVKGRFTISRDNAKNTVYLQMNSLKPEDTAVYYCAADADTDVVYILQEYDYWGQGTQVTVSS,low polyreactivity
22,QVQLVESGGGLVQAGGSLRLSCAASGSITGLNAMGWYRHAPGKERELVAAIYRSGGRTYNADSVKGRFTISRDNAKNTVYLQMISLKPEDTAVYYCAAVTTWRLDYWGQGTQVTVSS,high polyreactivity

row,Sequence,polyreactivity (PSR sort gate)
1,QVQLVESGGGLVQAGGSLRLSCAASGSIVHGYTMGWYRQEPGKERELVAAINSGDGSTYADSVKGRFPISRDNAKNTVYLQMNSLKPEDTAVYYCAADDSTLADGGDYWGQGTQVTVSS,low polyreactivity
2,QVQLVESGGGLVQAGGSLRLSCAASGSIVIINAMGWYRQAPGKERELVASMTRNGGSTYYADSVKGRFTISRDNPKNTVEFQMNSLKPDDTAVYYCAATYYRFPSLIAYVRYDYWGQGTQVTVSS,high polyreactivity
3,QVQLVESGGGLVQAGGSLRLSCAASGSIVPVYAMGWYRQAPGKEREFVAGINTIGGSTYYADSVKGRFTISRDNAKNTVYLQMNSLKPEDTAVYYCAATQYWNMYSWGQGTQVTVSS,low polyreactivity
4,QVQLVESGGGLVQAGGSLRLSCAASGSIVSGYAMRWYRQAPGKQRELVAAISRGGSTNYADSVKGRFTISRDNAKNTVYLQMNSLKPEDTAVYYCANTPTKYHYAFGYWGQCTQVTVSS,low polyreactivity
5,QVQLVESGGGLVQAGGSLRLSCAASGSIVSVYAMGWSRQAPGKEREWVAAISGRGGRTYYADSVKGRFTISRDNAKNTVYLQMNSLKPVDTAVYYCAARYPRYRYVEYGYNYWGQGTQVTVSS,high polyreactivity
6,QVQLVESGGGLVQAGGSLRLSCAASGSIWRNAMGWYRQAPGKERELVAGITRRSGSTYYADSVKGRFTISRDNAKYTVYLQMNSLKPEDTAVYYCARVVVGGDDYWGQGTQVTVSS,high polyreactivity
7,QVQLVESGGGLVQAGGSLRLSCAASGSIYARNAMGWYRQAPGKERELVAAIRYSGGSTYYADSVKGRFTISRDNAKNTVYLQMNSLKPEDTAVYYCAARWGVFGYYYWGQVTQVTVSS,high polyreactivity
8,QVQLVESGGGLVQAGGSLRLSCAASGSIYGYNAMGWYRQAPGKEREFVAAISWSGGRTYYADSVKGRFTISRDTAKNTVYLQMNSLNPEDTAVYYCAAPSRPAPRFDYWGQGTQVTVSS,low polyreactivity
9,QVQLVESGGGLVQAGGSLRLSCAASGSIYGYTMGWNRQAPWKERELVAAINRRADRTYYADSVKGRFTISRDNAKNTVYLQMNSLKPEDTAVYYCNKGGWYTLGYWGQGTQVTVSS,high polyreactivity
10,QVQLVESGGGLVQAGGSLRLSCAASGSIYNKNAMGWNRQAPGKERELVAAINQSGGGTYYADSVKGRFTISRDNAKNTVYLQMNSLKPEDTAVYYCAAQVWAGIRYYHMYYWGQGTQVTVSS,low polyreactivity
11,QVQLVESGGGLVQAGGSLRLSCAASGSIYRYAMGWYRQAPGKERELVAAINFNGGRTYYADSVKGRFTISRDNAKNTVYIQMNSLKPEDTAVYYCAAVRSSNQGGFDYWGQGTQVTVSS,high polyreactivity
12,QVQLVESGGGLVQAGGSLRLSCAASGSIYTSNAMGWYRQAPGKERELVAVITWRSGRTYYADSVKGRFTISRDNAMNTVYLQMNSLKPEDTAVYYCDALRYPKQKFDSWGQGTQVTVSS,high polyreactivity
13,QVQLVESGGGLVQAGGSLRLSCAASGSIYVNTMGWYRQAPGKEREFVAAITRRGGSTYYADSVKGRFTISRDNAKNTVYLQMNSLKPEDTAVYYCNADNRYSAHDYWGQGTQVTVSS,high polyreactivity
14,QVQLVESGGGLVQAGGSLRLSCAASGSIYYFNAMGWYRQAPGKERELVASITSGGSTNYADSVKGRFTLSRDNAKNTVYLQMNSLNPEDTAVYYCNARFPYLSRWLVRGLASYDYWGQGTQVTVSS,low polyreactivity
15,QVQLVESGGGLVQAGGSLRLSCAASGSLFEWYAMGWSRQAPGKEREFVADITYNGGSTYYADSVKGRFTISRDNAKNTVYLHMNSLKPEDTAVYYCAADYFVQVPDYYYPSEYGYWGQGTQVTVSS,low polyreactivity
16,QVQLVESGGGLVQAGGSLRLSCAASGSLFNYYAMAWSRTAPGKERELVAGITTSGGSTYYAESVKGRFRISRDNAKNTVYLQMNSLKPEDTAVYYCAAYDYISSTYFLDDYWGQGTQVTVSS,low polyreactivity
17,QVQLVESGGGLVQAGGSLRLSCAASGSLFTGYAMGWYRQAPGKERELVAAISSSGSTTYYADSVKGRFTISRDNAKNTVYLQMNSLKPEDTAVYYCATRVNYGYYYWGQGSQVTVSS,high polyreactivity
18,QVQLVESGGGLVQAGGSLRLSCAASGSLFYFYAMGWYRQAPGKERELVAAISSGGSTYYADSVKGRFTISRDNAKNTVYLQMNSLKPEDTEVYYCAADSLYYRYDYWGQGTQVTVSS,low polyreactivity
19,QVQLVESGGGLVQAGGSLRLSCAASGSLVGYYPMGWYRQAPGKERELVAAISRSGGSTYYADSVKGRFSISRDNAKNTVYLQMNSLKPEDTAVYYCATSRVRSAGRDYWGQGTQVTVSS,high polyreactivity
20,QVQLVESGGGLVQAGGSLRLSCAASGSNFAKYAMGWYRQAPGKERELVAAISWRGGSTYYADSVKGRFTISRDNAKNTVYLQMNSLKPEDTAVYYCNKVGTWQGPYDYWGQGTQVTVSS,high polyreactivity
21,QVQLVESGGGLVQAGGSLRLSCAASGSNFDIYAMGWSRQAPGKERELVAAISWNGGDTTYADSVKGRFTISRDNAKNTVYLQLNSLKPEDTAVYYCAADLGYWVADYYWGQGTQVTVSS,high polyreactivity
